Paper doi:10.1101/2022.12.06.518574
Where two headings read alike, the source gives them in different places.

Experiments:
[1] = target: Streptococcus pyogenes enolase, wild type (WT-Sen) (Streptococcus pyogenes (Group A, isolate AP53)); assay: cryo-EM structure
[2] = target: Streptococcus pyogenes enolase, wild type (WT-Sen) (Streptococcus pyogenes (Group A, isolate AP53)); assay: AUC
[3] = target: Streptococcus pyogenes enolase, wild type (WT-Sen) (Streptococcus pyogenes (Group A, isolate AP53)); assay: AUC; remark: listed apart in the source
[4] = target: DOPG/Sen (the Sen variants of Figure 5A-D on DOPG vesicles); assay: flow cytometry of phospholipid vesicles

Streptococcus pyogenes enolase, wild type (WT-Sen) (enzyme), sequence (A2RFE3 whole entry): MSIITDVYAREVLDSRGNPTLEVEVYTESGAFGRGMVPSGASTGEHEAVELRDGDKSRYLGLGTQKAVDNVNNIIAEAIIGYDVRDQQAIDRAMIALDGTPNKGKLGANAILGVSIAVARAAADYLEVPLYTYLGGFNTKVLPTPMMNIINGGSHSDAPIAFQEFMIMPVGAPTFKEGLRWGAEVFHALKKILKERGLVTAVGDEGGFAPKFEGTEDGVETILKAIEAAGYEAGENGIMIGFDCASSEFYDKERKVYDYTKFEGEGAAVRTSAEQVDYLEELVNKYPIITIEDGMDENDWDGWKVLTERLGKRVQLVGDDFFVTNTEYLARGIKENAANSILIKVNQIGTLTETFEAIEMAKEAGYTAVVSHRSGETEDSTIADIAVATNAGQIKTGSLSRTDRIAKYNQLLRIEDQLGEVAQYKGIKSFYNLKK

In the case of “Streptococcus pyogenes enolase, wild type (WT-Sen) (enzyme)”, the stoichiometry N [1] is reported as 8, the percent as octamer [2] is reported as over 95% and the stoichiometry N [2] is reported as 8. It also gave a percent as octamer [3] of over 95% and a stoichiometry N [3] of 8.

“human plasminogen (hPg) (natural protein)” was tested, and the percent of vesicles in the gate that defines DOPG/Sen bound to hPg [4] was 83 to 93%.
